Reference: patent US20260001937A1, “NOVEL RECOMBINANT FIBRINOGEN VARIANTS FOR FIBRIN SEALANTS FOR SURGICAL WOUND CARE” (Julius-Maximilians-Universität Würzburg, priority 2022, published 2026)

T1: His-rFbgH433R435
T1 chain 1: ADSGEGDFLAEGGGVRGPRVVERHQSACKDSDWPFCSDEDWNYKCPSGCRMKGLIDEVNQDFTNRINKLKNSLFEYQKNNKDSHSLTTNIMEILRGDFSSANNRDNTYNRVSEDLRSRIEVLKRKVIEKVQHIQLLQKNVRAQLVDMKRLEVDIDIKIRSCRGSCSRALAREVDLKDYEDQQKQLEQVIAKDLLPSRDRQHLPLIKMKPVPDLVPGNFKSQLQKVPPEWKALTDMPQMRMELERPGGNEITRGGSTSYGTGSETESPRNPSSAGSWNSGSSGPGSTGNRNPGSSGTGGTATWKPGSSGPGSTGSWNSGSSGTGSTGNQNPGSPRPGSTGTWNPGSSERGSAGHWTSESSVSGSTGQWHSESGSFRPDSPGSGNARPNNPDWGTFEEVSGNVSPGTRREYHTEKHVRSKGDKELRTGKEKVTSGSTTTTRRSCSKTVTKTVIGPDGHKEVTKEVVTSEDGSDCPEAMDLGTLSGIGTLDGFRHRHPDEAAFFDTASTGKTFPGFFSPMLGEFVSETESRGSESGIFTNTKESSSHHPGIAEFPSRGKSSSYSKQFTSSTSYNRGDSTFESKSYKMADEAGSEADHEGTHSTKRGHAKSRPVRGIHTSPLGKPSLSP
T1 chain 2: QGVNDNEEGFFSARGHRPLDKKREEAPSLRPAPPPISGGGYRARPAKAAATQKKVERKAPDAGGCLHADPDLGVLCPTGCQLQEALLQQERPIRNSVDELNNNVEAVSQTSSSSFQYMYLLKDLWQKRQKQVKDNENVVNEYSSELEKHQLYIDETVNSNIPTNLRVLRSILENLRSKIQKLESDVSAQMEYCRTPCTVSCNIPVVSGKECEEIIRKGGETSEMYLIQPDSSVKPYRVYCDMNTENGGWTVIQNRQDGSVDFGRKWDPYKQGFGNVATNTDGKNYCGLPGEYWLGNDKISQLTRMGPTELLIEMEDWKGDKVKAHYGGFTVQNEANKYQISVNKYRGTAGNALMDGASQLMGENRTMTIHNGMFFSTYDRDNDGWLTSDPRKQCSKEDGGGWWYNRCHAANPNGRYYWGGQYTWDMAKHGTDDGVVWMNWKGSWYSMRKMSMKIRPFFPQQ
T1 chain 3: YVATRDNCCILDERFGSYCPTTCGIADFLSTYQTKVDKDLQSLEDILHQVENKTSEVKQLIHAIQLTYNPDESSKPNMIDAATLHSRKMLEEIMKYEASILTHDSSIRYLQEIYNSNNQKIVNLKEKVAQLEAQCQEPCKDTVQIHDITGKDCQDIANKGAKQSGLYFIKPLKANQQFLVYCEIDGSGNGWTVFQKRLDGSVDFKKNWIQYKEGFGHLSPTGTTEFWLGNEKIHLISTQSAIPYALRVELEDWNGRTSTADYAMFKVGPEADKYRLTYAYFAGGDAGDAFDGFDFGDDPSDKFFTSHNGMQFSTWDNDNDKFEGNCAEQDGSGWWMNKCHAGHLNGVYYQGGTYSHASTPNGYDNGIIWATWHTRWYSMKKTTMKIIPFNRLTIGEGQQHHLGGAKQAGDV

B1: factor XIIIa (Fibrogammin, CSL Behring) (protein)
chain: GVNLQEFLNVTSVHLFKERWDTNKVDHHTDKYENNKLIVRRGQSFYVQIDFSRPYDPRRDLFRVEYVIGRYPQENKGTYIPVPIVSELQSGKWGAKIVMREDRSVRLSIQSSPKCIVGKFRMYVAVWTPYGVLRTSRNPETDTYILFNPWCEDDAVYLDNEKEREEYVLNDIGVIFYGEVNDIKTRSWSYGQFEDGILDTCLYVMDRAQMDLSGRGNPIKVSRVGSAMVNAKDDEGVLVGSWDNIYAYGVPPSAWTGSVDILLEYRSSENPVRYGQCWVFAGVFNTFLRCLGIPARIVTNYFSAHDNDANLQMDIFLEEDGNVNSKLTKDSVWNYHCWNEAWMTRPDLPVGFGGWQAVDSTPQENSDGMYRCGPASVQAIKHGHVCFQFDAPFVFAEVNSDLIYITAKKDGTHVVENVDATHIGKLIVTKQIGGDGMMDITDTYKFQEGQEEERLALETALMYGAKKPLNTEGVMKSRSNVDMDFEVENAVLGKDFKLSITFRNNSHNRYTITAYLSANITFYTGVPKAEFKKETFDVTLEPLSFKKEAVLIQAGEYMGQLLEQASLHFFVTARINETRDVLAKQKSTVLTIPEIIIKVRGTQVVGSDMTVTVEFTNPLKETLRNVWVHLDGPGVTRPMKKMFREIRPNSTVQWEEVCRPWVSGHRKLIASMSSDSLRHVYGELDVQIQRRPSM

Experiments:
[1] = system: ExpiCHO-S cell supernatant (degradation of fibrinogen α-chain); assay: Screening of inhibitors for Fbg degradation in ExpiCHO-S cell supernatant (SDS-PAGE); format: biochemical, Chinese hamster; conditions: commercial human Fbg 3.3 mg/mL, 37 C, several days, Aprotinin 50 μg/mL, EDTA 4 mM, 1,10 Phenanthroline 1 mM, UK 370106 100 μM
Experimental: ExpiCHO-S cells were cultured to a density of 6×10^6 cells/mL. Afterwards, cells were centrifuged for 4 min at 1000 rpm at RT and the supernatant was collected. Commercially available fibrinogen (SigmaAldrich) was mixed with the supernatant to a final concentration of 3.3 mg/mL and a volume of 200 μl. The mixture incubated at 37° C. and 750 rpm and samples were taken at 0, 24 and 48 h. For the screening the different inhibitors were added to the mixture (final concentrations: PMSF: 1 mM; Aprotinin: 50 μg/mL; GM6001: 25 μM; EDTA: 4 mM; 1,10 Phenanthroline: 1 mM; UK 370106: 100 μM). As control fibrinogen was incubated in 10 mM Tris/HCl, 150 mM NaCl (pH 7.5) under the same conditions. For the visualization of fibrinogen degradation, 20 μL of the mixtures were analyzed using SDS-PAGE.
Commercially available human Fbg was incubated with the supernatant taken from the CHO cells used for the expression and incubated the protein at 37 C for several days.

His-rFbgH433R435 [2] = system: His-rFbgH433R435
human plasmin = biological target: T2, human plasmin (Homo sapiens, UniProt P00747); assay: Plasmin digest in solution of Fbg and rFbg variants, high-resolution ESI-MS of γ-chain cleavage sites; format: biochemical; conditions: for plasmin cleavage at the 4 sites K88, K111, K382, K399 of the γ-chain: fibrinogen solution 1 mg/mL, plasmin 0.5 U/mL, 24 h, 37° C., high-resolution ESI-MS; for plasmin cleavage at position 382 of the γ-chain (FIG. 5): peptide fragments after plasmin and additional ProAlanase cleavage, both cleaved and non-cleaved peptides detected
T2 construct: Active plasmin is a serine protease that is derived from its zymogen plasminogen; purchased Merck
Experimental: In order to analyze plasmin digestion of mutated restriction sites, 100 μL of human plasmin (Merck) (0.5 U/mL) were added to 100 μg of Fbg and rFbg (Ala and His) and incubated for 24 h at 37° C. and 130 rpm in order to ensure complete cleavage. Afterwards, samples were stored at −80° C. For the analysis of the time-dependent cleavage site determination and quantification of plasmin, fibrin gels (20 mg/mL) were incubated with different plasmin concentrations ranging from 0.005 mU/mL-0.5 U/mL. Samples were taken at different timepoints from 1 min to 24 h. PMSF (1 mM) was added to the sample and heated at 95° C. for 10 minutes to ensure plasmin inactivation. Samples were stored at −80° C.
Proteins were digested either with plasmin alone (vide supra) or with plasmin and ProAlanase (ProAla) (Promega) with slight differences in handling. For all digests, all samples (WT/HIS/ALA) were brought to a concentration of 0.2 μg/μL in 50 mM tris buffer. For “plasmin only” samples were immediately purified (see below). For ProAla (Promega), 50 μL of 8M Guanidinium Hydrochloride were added to 10 μg (50 μL) of protein stock solution and briefly heated to ensure denaturation. To enable specific ProAla digest the solution was acidified using 900 μL of 32 mM HCl. After pH was checked to be in the range of 1-1.5, ProAla was added (1:50 ProAla:Protein; […]), proteolysis was allowed to continue for 2.5 h. Afterwards, pH was set to slightly basic by addition of 0.5-1 mL of 2 M Tris buffer. In the next step, the samples were immediately purified.
Precursor Tolerance of 15 ppm, fragment mass tolerance of 20 ppm, digestion C-terminal of K (non-specific), modifications are concurrent with the PMI-Byos recommendations for sequence variant analysis workflows (two rare and common modifications allowed).
Precursor Tolerance of 15 ppm, fragment mass tolerance of 20 ppm, digestion C-terminal of A and P (non-specific), modifications are concurrent with the PMI-Byos recommendations for sequence variant analysis workflows (two rare and common modifications allowed).
The α-chain plays an important part in the gelation process of fibrin. Due to the truncated α-chain gel formation with rFbg was not possible, as the production of intact complex (compare above) was still ongoing. Therefore, plasmin digests in solution with WT as well as both Ala- and His-rFbg mutants was performed to investigate if the inserted mutations are limiting proteolytic efficiency of plasmin at the respective cleavage sites. Plasmin was added to the fibrinogen solution (1 mg/mL) to a final concentration of 0.5 U/mL and the mixture was incubated for 24 h to ensure complete cleavage of fibrinogen. […] At some positions both cleaved and non-cleaved peptides were detected, however no cleavage did contain a mutation. This might be due to residual WT-Fbg peptides either on the column (carryover) or through residual WT-Fbg at any point in the workup.

ExpiCHO-S cells = conditions: literature report (ref. 51); cited from earlier work
His-rFbgH433R435 [3] = biological target: T1, His-rFbgH433R435

T2 sequence (P00747 97-580 limits assumed): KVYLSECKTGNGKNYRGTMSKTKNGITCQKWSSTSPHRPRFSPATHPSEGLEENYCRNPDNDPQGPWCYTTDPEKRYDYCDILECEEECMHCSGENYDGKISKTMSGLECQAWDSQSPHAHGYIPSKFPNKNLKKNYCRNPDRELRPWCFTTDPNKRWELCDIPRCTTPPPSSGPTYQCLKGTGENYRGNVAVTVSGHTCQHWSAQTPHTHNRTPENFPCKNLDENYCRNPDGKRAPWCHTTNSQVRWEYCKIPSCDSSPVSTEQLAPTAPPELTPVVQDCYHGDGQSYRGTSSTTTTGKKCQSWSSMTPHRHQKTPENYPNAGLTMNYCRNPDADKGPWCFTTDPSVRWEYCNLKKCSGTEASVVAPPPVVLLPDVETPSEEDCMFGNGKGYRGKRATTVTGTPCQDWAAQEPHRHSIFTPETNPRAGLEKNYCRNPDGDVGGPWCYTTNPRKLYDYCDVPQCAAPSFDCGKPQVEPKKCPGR
T2 sequence (P00747 581-810 limits assumed): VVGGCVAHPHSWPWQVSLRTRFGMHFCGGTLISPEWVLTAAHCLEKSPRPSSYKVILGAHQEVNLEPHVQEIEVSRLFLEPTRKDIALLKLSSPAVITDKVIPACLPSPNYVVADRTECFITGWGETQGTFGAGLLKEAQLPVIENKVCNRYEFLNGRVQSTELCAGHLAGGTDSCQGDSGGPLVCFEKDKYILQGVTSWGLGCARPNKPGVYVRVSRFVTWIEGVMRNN

| Molecule | state of the Fbg α-chain after incubation with CHO cell supernatant plus inhibitor [1] | plasmin cleavage at the 4 sites K88, K111, K382, K399 of the γ-chain (human plasmin) | further results |
| --- | --- | --- | --- |
| c1cnc2c(c1)ccc1cccnc12 [1,10 Phenantroline, 1,10 Phenanthroline] | intact α-chain was detected |  |  |
| thrombin |  |  | thrombin-catalyzed fibrin polymerization, turbidity at 350 nm (His-rFbgH433R435 [2]): thrombin-induced fibrin polymerization of His-rFbgH433R435 was slightly reduced compared with control (pFbg), with a similar lag time and comparable absorption |
| COC[C@@H](NC(=O)[C@@H](NC(=O)[C@H](CCCc1ccc(-c2ccccc2)c(C)c1)CC(=O)O)C(C)(C)C)c1ccccc1 [UK 370106, (βR)-β-[[[(1 S)-1-[[[(1 S)-2-Methoxy-1-phenylethyl]amino]carbonyl]-2,2-dimethylpropyl]amino]carbonyl]-2-methyl-[1,1′-biphenyl]-4-hexanoic acid] | intact α-chain was detected |  |  |
| O=C(O)CN(CCN(CC(=O)O)CC(=O)O)CC(=O)O [EDTA] | intact α-chain was detected |  |  |
| His-rFbg: recombinant fibrinogen of Aα-, Bβ- and γ-chain with γ-chain K88H, K111H, K382H, K399H |  | no cleavage was detected | plasmin cleavage at position 382 of the γ-chain (FIG. 5) (human plasmin): partial cleavage |
| WT: commercially available human fibrinogen (SigmaAldrich), wild type, used as control [reference compound] |  | could be detected |  |
| aprotinin | truncated α-chain is also visible |  | effect of inhibitor addition during CHO cell expression on proteolytic degradation of the fibrinogen α-chain (ExpiCHO-S cells): did inhibit proteolytic degradation |
| Ala-rFbg: recombinant fibrinogen of Aα-, Bβ- and γ-chain with γ-chain K88A, K111A, K382A, K399A |  | no cleavage was detected | plasmin cleavage at position 382 of the γ-chain (FIG. 5) (human plasmin): partial cleavage |
| B1 |  |  | FXIIIa-catalyzed cross-linking of gamma-chains, reducing SDS-PAGE (His-rFbgH433R435 [3]): the cross-linked γ-γ-dimer bands of rFbgH433R435 were visible after 5 min, indicating rapid lateral linkage |
